Reference: the DeepSol protein solubility set

Assay: soluble on expression in E. coli; label from the status in PepcDB or PDB records

| Sequence | soluble on expression in E. coli |
| --- | --- |
| MSQVQFSHNPLFCIDIIKTYKPDFTPRVAFILGSGLGALADQIENAVAISYEKLPGFPVSTVHGHAGELVLGHLQGVPVVCMKGRGHFYEGRGMTIMTDAIRTFKLLGCELLFCTNAAGSLRPEVGAGSLVALKDHINTMPGTPMVGLNDDRFGERFFSLANAYDAEYRALLQKVAKEEGFPLTEGVFVSYPGPNFETAAEIRMMQIIGGDVVGMSVVPEVISARHCDLKVVAVSAITNMAEGLSDVKLSHAQTLAAAELSKQNFINLICGFLRKIA | soluble |
| MSRFLISSFILIAFVLQFGEGSIAVQEVKDGEKVQIELFKGAKAIQRSVDAGEQIFHFEGENKGVFVDANGKAIDSSNYEENNGHLVIKKFTKADVGSYSEYPTKIIKTKTDHGFSGVAAPVLKLSLQ | soluble |
| MSRPTIIINDLDAERIDILLEQPAYAGLPIADALNAELDRAQMCSPEEMPHDVVTMNSRVKFRNLSDGEVRVRTLVYPAKMTDSNTQLSVMAPVGAALLGLRVGDSIHWELPGGVATHLEVLELEYQPEAAGDYLL | soluble |
| MSRQRLGKSMIKANSWSSNLNAYRILQEPQSLTEEPPPIQTICPVQPESMAPPEHHNHRHLVTQEENRGRHLVGNPMRRTRSDVGAHGLTPHQPLLTRSKSDHGLERVATPLAFEVQSVGSEQTASSAEVMTAAGRRHSLLTDYQAAIARPLDLDRVLAAVKLRAAAEIYCKKNNLARLSPRPPRTSAGNQRLDALVNRPVDELIAEVQAAPRKFSRTQLTDVAQRHLLAALNIDIDQYKKGVHKAGLYEGLHSVAGRLVSVAAAAVSAGVSEVPGVSKTVTKTVKILSHQLPSSVVNPALTGGLRSVTDVMESFKRVGGLPVLSPQIDKSPDMGKIVKAAREMRGQLDEAVGHFARAHKSDPQALPRLVDAFLALHGVADRQYRRRIGLNRTQTYGKGWGMAVNGVAAIGTVVSTTVPVVGQVAGPAILASTIPLQWGAGYLDERRNKHRYNLRANTKWGDFLKDNAANIHFKDLTVEHISESKLRQSFLTQPEVQIAAIREVYEDTIGELMRRRLEMQKDIDVQREAGRPMRALALKQLRELDAEIDVTKMHADQFESFNMDRWSAIPEDSVIGRCLDDLDNLQKANRRARLRKPGEGAQIVQRYVQAFQGGVSTGTTLPVVDAVASIDSFHVHDSQGHDHGLQPAPLAVAAGTGAAGGAVFTGATGEVRMSKADNKKIMTQLRVDPEVYTADAEHWRFRAGNRDVDLRTSAGYKQHAHTRWDELALVAQALKHGLTSGPVGLKNLAVAKVELRQARASLQSALDALAASGLPHRTPDSARAPTISSMKDQLYDYSEVRRHLGV | not soluble |
| MSRTWIRNPLAIFTANGLDAAGGLVVEDGRIVELLGAGQQPAQPCASQFDASRHVVLPGLVNTHHHFYQTLTRAWAPVVNQPLFPWLKTLYPVWARLTPEKLELATKVALAELLLSGCTTAADHHYLFPGGLEQAIDVQAGVVEELGMRAMLTRGSMSLGEKDGGLPPQQTVQEAETILADSERLIARYHQRGDGARVQIALAPCSPFSVTPEIMRASAEVAARHDVRLHTHLAETLDEEDFCLQRFGLRTVDYLDSVGWLGPRTWLAHGIHFNAEEIRRLGEAGTGICHCPSSNMRLASGICPTVELEAAGAPIGLGVDGSASNDASNMILEARQALYLQRLRYGAERITPELALGWATRGSARLLGRSDIGELAPGKQADLALFKLDELRFSGSHDPLSALLLCAADRADRVMVGGAWRVVDGAVEGLDLAALIARHRAAASALIAG | not soluble |
| MSRYCSQCGKSRKACICQWIVPLASGVELIILQHTSEAHRPLGTARILNLSLKNCTCLIGEDFSDDAQLNALLTDEAYQHFILYPSEQSQCLSDIACTESERTRKTRLILLDGTWKKAYKMWQLSTNLHTLTTVKLPEDLQGHYTIRKAPSDNSLSTVEAGFYALSLLEPDNDFSPLLNAFDRMIEFQIAQMPPGVFEKNYLNKLEHHHHHH | not soluble |
| MSSAKLFTPLKVGAITATNRVFMAPLTRLRSIEPGDIPTPLMAEYYRQRASAGLIISEATQISAQAKGYAGAPGLHSDEQIAAWKKITQGVHAQGGHMAVQLWHTGRISHASLQPGGQAPVAPSAINAGTRTSLRDENGQAIRVETSTPRALDTHEIPGIVNDFRQAIANAREAGFDLVELHSAHGYLLHQFLSPSSNHRTDRYGGGVENRARLVLEVVDAGIKEWGADRIGIRLSPVGTFQNVDNGPNEEADALYLIEALGKRGIAYLHMSEPDWAGGEPYSDAFREKVRARFHGPIIGAGAYTPEKAEDLIEKGLIDAVAFGRDYIANPDLVARLQRKAELNPQRPESFYGGGAEGYTDYPTL | not soluble |
| MSSALLRAAYAYDRLRAHPPEVAGQIATAMASAVHPKGEEPVFLELGVGTGRIALPLIARGYRYIALDADAAMLEVFRQKIAGVDRKVQVVQADARAIPLPDESVHGVIVVHLWHLVPDWPKVLAEAIRVLKPGGALLEGWDQAEASPEWTLQERWRAFAAEEGFPVERGLHAKRLKEVEEALRRLGLKPRTREVARWREERTPREALEALSERLYSFTQGLPEPVHARVMERLWAWAEAELGDLDRPFPVEKRFLLRVSRLG | soluble |
| MSSAQRVVITPGEPAGSGPDLVVQLAQRAWPIELVVCADGALLTERAAMLGLPLSLLPYSPDVPAAPQPAGTLTLLPVSLRAPAISGQLTVENGPYVVETLARACDGCLNGEFAALITGPVHKGVINDAGISFTGHTEFFEERSQAKKVVMMLATEELRVALATTHLPLRAIADAITPALLHEVIAILHHDLRTKFGIAEPRILVCGLNPHAGEGGHMGTEEIDTIIPVLDELRAQGMKLNGPLPADTLFQPKYLDNADAVLAMYHDQGLPVLKYQGFGRGVNITLGLPFIRTSVDHGTALELAGRGKADVGSFITALNLAIKMIVNTQ | soluble |
| MSSAQVNGISKRLIVESPNVKLEDGVLESRFTYRKNHFEHRADGLHVTPKEHDYSFKTVLKPRKTGLLLVGLGGNNGSTAVGSIFANQYAMTWRTKEGHSQANYFGSVTQTATVHLGYDSATQNQIFVPFKDIVPILSPNDLIISGWDISDSNLYEAMGRAKVFEPELQEKLRPFMEPIVPLPSIYYPDFIASNQGDRANNVIPGDNKLEHLEHIRADIRKFKQEHELECVIVLWTANTERYTDVRQGLNATADEIMESIRVNEDEVSPSNIFAVASILEGAHYINGSPQNTLVPGLIELAERHKVFVGGDDFKSGQTKFKSAFVDFLVSSGMKPESIVSYNHLGNNDGKNLSEARQFRSKEISKSSVVDDMVKSNQILFPDAKNPDHCVVIKYVPYVADSKRAMDEYICSIFMGGKQTFVVHNTCEDSLLASPLIYDLAILTELASRVSYKVDDEYKPFHSVLSILSLLLKAPVVPPGTPISNAFMRQFSTLTKLVTALAGFPSDTDMQIEFFTQLPAAKSKSQ | not soluble |
| MSSAWKTPRGSDAMPEIMVKIIGSKHFQYLVEKPKIKENDSLKTETQTMHQKPMTDNARQMSRDTPVPINFTDQQTTDNPDDVKEKKHPENNQKSENNQKLLTGANSSRFLDGNIPSQANVHCSSVPTGDQSLSYVHGIPRRKLRDWSLEQMVRGSSDQPEDIGQSPSGTTNEDAFLLALVRRELKSRPLSSNLLEKLQKELKILDPISSGFLLQSQLSRLFLKHEVPLQLPTVKILCQRFSKRGSPEMVNYEKLLWFLNSAASDYPQQNKAAADLRKTESHGTHSQSTPPQHSSSQPEVNRSLLEILKMALRTTNGRLNIDNLNLSFRKEDRSFSGCLPLPKVRAICGKHGLYLTLSLLETLLNHQDLGYQNEIKWQNFVEMLTRASSDLLSDLPTGKNEKKAPAPPMEPEVPEMSQSKTEHMKTPEEELQPESSPAETSACKDPLKPLKIRPVSQPFVNPAVKNKAEECETWIDRFRKLENALYLCDLSNTGVLEKERARRLIHNYNLIYNLSLSPQKIDQALRRFRSGENMLLEPALRYLKEL | not soluble |
| MSSHENDTPLPVPYTSRLGQPLDAGQTLNVHGKINEGAQVAEINLLQGGGEIGPNTQVILHLKLNFKEKKVILNSYENGVWGKEERESLPFQAGQEFDLRIRVLDEGLEISADNKKIHEFKHRLPFQSIEYLSVRGDLSLNGIHWGGRFYKLPWETAFPAGFLEKGQRVHLYGIPKGDRWSLDLVARNQDILFHFNPRIKDKAVVRNSHRNGFWDTEEREGGFPFKKDVGFDLTIVNEEYSIQIFINRERFGTFQHRTQNPIGDYIGLRIDGEVEVTGIEFSH | soluble |
| MSSHHHHHHMQFDVTIEIPKGQRNKYEVDHETGRVRLDRYLYTPMAYPTDYGFIEDTLGDDGDPLDALVLLPQPVFPGVLVAARPVGMFRMVDEHGGDDKVLCVPAGDPRWDHVQDIGDVPAFELDAIKHFFVHYKDLEPGKFVKAADWVDRAEAEAEVQRSVERFKAGTH | soluble |
| MSSKMVKSSEIVGKLNLRAHQEGGFFAETFRDSSVFLSTSQLPPTFKVDRAVSTSIYFLLPSGSVSRLHRIPMAETWHFYLGEPLTVVELYDDGKLKFTCLGPDLFEGDQKPQYTVPPNVWFGSFPTKDVHFSQDGALLKAEARDSENHFSLVGCTCAPAFQFEDFELAKRSDLLSRFPQHESLITMLSYPE | soluble |
| MSSLDNAPLLELDVQEWVNHEGLSNEDLRGKVVVVEVFQMLCPGCVNHGVPQAQKIHRMIDESQVQVIGLHSVFEHHDVMTPEALKVFIDEFGIKFPVAVDMPREGQRIPSTMKKYRLEGTPSIILADRKGRIRQVQFGQVDDFVLGLLLGSLLSETDET | soluble |
| MSSLRRKWISDPAFKVFKKVLPPLSSTEKEAMEAGSVWWDAELFSGKPNFTTLHHYPAPTLTAEEQAFMDNELETLLDMLDDQKIVKEDRDLPPEVWEYLRKERFFSLIISKEYGGREFSALANSTIVSRIATRSISVAVSVMVPNSLGPGELLSHYGTQEQKDYWLPRLADGTDIPCFALTGPEAGSDAGGIPDQGVVCYGMYDGEEVLGVRVSWNKR | not soluble |
| MSSMVEVEHWNTLRLRIYIGENDKWEGRPLYKVIVEKLREMGIAGATVYRGIYGFGKKSRVHSSDVIRLSTDLPIIVEVVDRGHNIEKVVNVIKPMIKDGMITVEPTIVLWVGTQEEIKKFEEDAIAERQ | soluble |
| MSSNVPADMINLRLILVSGKTKEFLFSPNDSASDIAKHVYDNWPMDWEEEQVSSPNILRLIYQGRFLHGNVTLGALKLPFGKTTVMHLVARETLPEPNSQGQRNREKTGESNCCVIL | soluble |
| MSSPTATKYDVFLSFRGLDTRRNFISFLYKELVRRKIRTFKDDKELENGRRISPELKRAIEESKFAVVVVSVNYAASPWCLDELVKIMDFENKGSITVMPIFYGVDPCHLRRQIGDVAEQFKKHEAREEDHEKVASWRRALTSLASISGECSLKWEDEANLVDEIADKISKNLMTVTTISNGRDLVGIDTHMKALNKKLDLNSNKSLRVVGIWARGYNGRSALAKYVYQDICHWLKVGWLKVYQDIKTASKLYVLTRWLKVAHLLHRSHHSFKTE | soluble |
| MSSQKQLEGMIFDVQSFSVHDGPGCRTTVFLNGCPLSCKWCANPESWTVRPHMMFSELSCQYENGCTVCHGKCKNGALSFNLDNKPVIDWNICKDCESFECVNSCYYNAFKLCAKPYTVDELVQVIKRDSNNWRSNGGVTFSGGEPLLQHEFLHEVLLKCHEVNIHTAIETSACVSNEVFNKIFNDIDFAFIDIKHMDREKHKEQTGVYNDLILENISNLANSDWNGRLVLRVPVISGFNDSDENISDIISFMHKNNLVEINLLPFHRLGESKWTQLGKEYEYSDKGDVDEGHLEELQDIFLDNGIACYVGHETAF | not soluble |
